# T1: human FcγRIIa(R) (human, UniProt P12318 36-217)
# T1 construct: also called FcgRIIaR; FcγRIIa type R
# T1 chain: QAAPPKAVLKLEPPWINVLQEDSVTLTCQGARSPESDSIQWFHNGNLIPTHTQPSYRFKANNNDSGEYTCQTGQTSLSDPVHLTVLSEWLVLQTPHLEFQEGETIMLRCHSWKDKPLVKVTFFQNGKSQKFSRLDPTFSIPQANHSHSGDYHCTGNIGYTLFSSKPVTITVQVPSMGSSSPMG
# T2: human FcγRIIb (human, UniProt P31994 43-217, limits assumed)
# T2 construct: also called FcgRIIb
# T2 sequence: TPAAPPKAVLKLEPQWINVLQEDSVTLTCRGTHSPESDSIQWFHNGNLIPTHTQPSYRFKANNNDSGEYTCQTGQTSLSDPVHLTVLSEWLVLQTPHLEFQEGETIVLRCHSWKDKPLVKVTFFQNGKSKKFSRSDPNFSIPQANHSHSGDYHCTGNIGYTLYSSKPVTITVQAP
# T3: human FcγRIIa(H) (human, UniProt P12318 36-217)
# T3 construct: also called FcgRIIaH; FcγRIIa type H
# T3 sequence: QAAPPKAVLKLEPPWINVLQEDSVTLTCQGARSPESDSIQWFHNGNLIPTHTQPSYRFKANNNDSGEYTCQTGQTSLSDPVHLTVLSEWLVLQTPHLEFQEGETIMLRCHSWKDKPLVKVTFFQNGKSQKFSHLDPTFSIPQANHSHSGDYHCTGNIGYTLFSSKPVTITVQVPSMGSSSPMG
# Key:
# [1] = molecular target: T4, soluble human FcRn complexed with β2-microglobulin (human, UniProt P61769 21-119, limits assumed); test: Biacore SPR, pH 7.0;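 also: test antibodies captured on a Protein L chip with human FcRn flowed over as analyte, KD obtained as the ratio of dissociation to association rate constants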
# T4 construct: also called hFcRn
# Protocol: A kinetic analysis of binding between human FcRn and the aforementioned antibodies was carried out using the BIACORE™ T100 or T200 surface plasmon resonance system (GE Healthcare). The antibodies being tested were captured on the CM4 Sensor Chip (GE Healthcare) on which a suitable amount of Protein L (ACTIGEN® protein (Alltech)) was suitably immobilized by amine coupling. Next, diluted human FcRn and a running buffer used as a blank were injected to allow the human FcRn to interact with the antibody captured on the sensor chip. A buffer consisting of 50 mmol/L sodium phosphate, 150 mmol/L NaCl and 0.05% (w/v) polysorbate 20 (Tween 20®) (pH 7.0 or pH 7.4) was used for the running buffer, and each buffer was also used to dilute the human FcRn. 10 mmol/L glycine-HCl (pH 1.5) was used to regenerate the sensor chip. All measurements of binding were carried out at 25° C. The KD(M) of each antibody to human FcRn was calculated based on kinetics parameters, i.e., the association rate constant ka (1/Ms) and the dissociation rate constant kd (1/s) calculated from a sensorgram obtained by the measurement. The BIACORE™ T100 or T200 Evaluation Software (GE Healthcare) was used to calculate each parameter.
# human FcγRIIa(R) = molecular target: T1, human FcγRIIa(R); test: SPR (Biacore);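 also: antibody variants captured on sensor chip, Fcγ receptor flowed over at 25 °C, bound receptor normalized to amount of captured antibody, expressed relative to reference antibody set as 100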
# human FcγRIIIa(F) = molecular target: T5, human FcγRIIIa(F) (human, UniProt P08637 17-208, limits assumed); test: SPR (Biacore);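 also: antibody variants captured on sensor chip, Fcγ receptor flowed over at 25 °C, bound receptor normalized to amount of captured antibody, expressed relative to reference antibody set as 100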
# T5 construct: also called FcgRIIIaF; allotype F158
# human FcγRIa = molecular target: T6, human FcγRIa (human, UniProt P12314 16-292, limits assumed); test: SPR (Biacore);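 also: antibody variants captured on sensor chip, Fcγ receptor flowed over at 25 °C, bound receptor normalized to amount of captured antibody, expressed relative to reference antibody set as 100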
# T6 construct: also called FcgRIa; FcγRI (CD64)
# human FcγRIIb = molecular target: T2, human FcγRIIb; test: SPR (Biacore);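 also: antibody variants captured on sensor chip, Fcγ receptor flowed over at 25 °C, bound receptor normalized to amount of captured antibody, expressed relative to reference antibody set as 100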
# human FcγRIIa(H) = molecular target: T3, human FcγRIIa(H); test: SPR (Biacore)
# T6 sequence (P12314 16-292 limits assumed): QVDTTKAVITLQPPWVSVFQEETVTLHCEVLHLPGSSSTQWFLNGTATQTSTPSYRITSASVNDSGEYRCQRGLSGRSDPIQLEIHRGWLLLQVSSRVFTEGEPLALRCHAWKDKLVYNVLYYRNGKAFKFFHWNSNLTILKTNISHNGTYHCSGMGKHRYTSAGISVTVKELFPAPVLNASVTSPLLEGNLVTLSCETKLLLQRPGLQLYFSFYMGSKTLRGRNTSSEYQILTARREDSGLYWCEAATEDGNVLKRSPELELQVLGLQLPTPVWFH
# T5 sequence (P08637 other isoform, or with tags, fused parts or gaps limits assumed): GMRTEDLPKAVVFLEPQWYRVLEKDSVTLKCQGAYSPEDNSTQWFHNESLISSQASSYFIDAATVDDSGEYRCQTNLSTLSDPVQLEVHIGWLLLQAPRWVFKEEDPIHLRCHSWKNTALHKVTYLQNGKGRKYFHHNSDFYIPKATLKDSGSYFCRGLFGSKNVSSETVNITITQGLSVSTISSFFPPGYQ
# T4 sequence (chain, as listed by the source limits assumed, chain 1 of 2): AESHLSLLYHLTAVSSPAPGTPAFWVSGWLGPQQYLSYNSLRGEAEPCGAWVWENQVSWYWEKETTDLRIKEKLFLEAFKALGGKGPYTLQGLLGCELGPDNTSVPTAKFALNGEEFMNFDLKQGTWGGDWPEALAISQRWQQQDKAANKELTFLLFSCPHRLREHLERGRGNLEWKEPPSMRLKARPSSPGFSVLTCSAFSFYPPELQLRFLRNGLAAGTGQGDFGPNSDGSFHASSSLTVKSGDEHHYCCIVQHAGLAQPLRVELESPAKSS
# T4 sequence (P61769 21-119 limits assumed, chain 2 of 2): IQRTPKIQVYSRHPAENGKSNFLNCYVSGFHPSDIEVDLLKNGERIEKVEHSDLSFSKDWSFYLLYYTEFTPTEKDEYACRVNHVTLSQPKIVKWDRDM
Binder,Kd [1] [nM],relative binding activity (human FcγRIIa(R)),relative binding activity (human FcγRIIIa(F)),relative binding activity (human FcγRIa),relative binding activity (human FcγRIIb),relative binding activity (human FcγRIIa(H))
"IgG1-F1378 (antibody, EU numbering; copies: 2 + 2) heavy: QVQLQESGPGLVKPSETLSLTCAVSGHSISHDHAWSWVRQPPGEGLEWIGFISYSGITNYNPSLQGRVTISRDNSKNTLYLQMNSLRAEDTAVYYCARSLARTTAMDYWGEGTLVTVSSASTKGPSVFPLAPSSKSTSGGTAALGCLVKDYFPEPVTVSWNSGALTSGVHTFPAVLQSSGLYSLSSVVTVPSSSLGTQTYICNVNHKPSNTKVDKKVEPKSCDKTHTCPPCPAPELRGGPKVFLFPPKPKDTLYISRTPEVTCVVVDVSHEDPEVKFNWYVDGVEVHNAKTKPREEQYNSTYRVVSVLTVLHQDWLNGKEYKCKVSNKALPAPIEKTISKAKGQPREPQVYTLPPSRDELTKNQVSLTCLVKGFYPSDIAVEWESNGQPENNYKTTPPVLDSDGSFFLYSKLTVDKSRWQQGNVFSCSVMHEALHYHTTQKSLSLSP light: not shown",361,,,,,
"IgG1-F1379 (antibody, EU numbering; copies: 2 + 2) heavy: QVQLQESGPGLVKPSETLSLTCAVSGHSISHDHAWSWVRQPPGEGLEWIGFISYSGITNYNPSLQGRVTISRDNSKNTLYLQMNSLRAEDTAVYYCARSLARTTAMDYWGEGTLVTVSSASTKGPSVFPLAPSSKSTSGGTAALGCLVKDYFPEPVTVSWNSGALTSGVHTFPAVLQSSGLYSLSSVVTVPSSSLGTQTYICNVNHKPSNTKVDKKVEPKSCDKTHTCPPCPAPELRGGPKVFLFPPKPKDTLYISRTPEVTCVVVDVSHEDPEVKFNWYVDGVEVHNAKTKPREEQYNSTYRVVSVLTVLHQDWLNGKEYKCKVSNKALPAPIEKTISKAKGQPREPQVYTLPPSRDELTKNQVSLTCLVKGFYPSDIAVEWESNGQPENNYKTTPPVLDSDGSFFLYSKLTVDKSRWQQGNVFSCSVMHEALHYHFTQKSLSLSP light: not shown",285,,,,,
"GpH7-B3 variant E269K/GpL16-k0 (antibody, human IgG1, copies: 2 + 2) heavy: not shown light: DIVMTQSPLSLPVTPGEPASISCQASESLVHSNRNTYLHWYLQKPGQSPQLLIYKVSNRFSGVPDRFSGSGSGTDFTLKISRVEAEDVGVYYCSQNTHVPPTFGQGTKVEIE",,4 % of GpH7-B3/GpL16-k0,11 % of GpH7-B3/GpL16-k0,71 % of GpH7-B3/GpL16-k0,1 % of GpH7-B3/GpL16-k0,22 % of GpH7-B3/GpL16-k0
"GpH7-B3 variant V266F/GpL16-k0 (antibody, human IgG1, copies: 2 + 2) heavy: not shown light: DIVMTQSPLSLPVTPGEPASISCQASESLVHSNRNTYLHWYLQKPGQSPQLLIYKVSNRFSGVPDRFSGSGSGTDFTLKISRVEAEDVGVYYCSQNTHVPPTFGQGTKVEIE",,,2 % of GpH7-B3/GpL16-k0,80 % of GpH7-B3/GpL16-k0,88 % of GpH7-B3/GpL16-k0,
"GpH7-B3 variant E269I/GpL16-k0 (antibody, human IgG1, copies: 2 + 2) heavy: not shown light: DIVMTQSPLSLPVTPGEPASISCQASESLVHSNRNTYLHWYLQKPGQSPQLLIYKVSNRFSGVPDRFSGSGSGTDFTLKISRVEAEDVGVYYCSQNTHVPPTFGQGTKVEIE",,16 % of GpH7-B3/GpL16-k0,10 % of GpH7-B3/GpL16-k0,94 % of GpH7-B3/GpL16-k0,,32 % of GpH7-B3/GpL16-k0
"GpH7-B3 variant G237Y/GpL16-k0 (antibody, human IgG1, copies: 2 + 2) heavy: not shown light: DIVMTQSPLSLPVTPGEPASISCQASESLVHSNRNTYLHWYLQKPGQSPQLLIYKVSNRFSGVPDRFSGSGSGTDFTLKISRVEAEDVGVYYCSQNTHVPPTFGQGTKVEIE",,77 % of GpH7-B3/GpL16-k0,0 % of GpH7-B3/GpL16-k0,7 % of GpH7-B3/GpL16-k0,,4 % of GpH7-B3/GpL16-k0
"GpH7-B3 variant D265A/GpL16-k0 (antibody, human IgG1, copies: 2 + 2) heavy: not shown light: DIVMTQSPLSLPVTPGEPASISCQASESLVHSNRNTYLHWYLQKPGQSPQLLIYKVSNRFSGVPDRFSGSGSGTDFTLKISRVEAEDVGVYYCSQNTHVPPTFGQGTKVEIE",,3 % of GpH7-B3/GpL16-k0,-1 % of GpH7-B3/GpL16-k0,36 % of GpH7-B3/GpL16-k0,1 % of GpH7-B3/GpL16-k0,5 % of GpH7-B3/GpL16-k0
"GpH7-B3 variant G237A/GpL16-k0 (antibody, human IgG1, copies: 2 + 2) heavy: not shown light: DIVMTQSPLSLPVTPGEPASISCQASESLVHSNRNTYLHWYLQKPGQSPQLLIYKVSNRFSGVPDRFSGSGSGTDFTLKISRVEAEDVGVYYCSQNTHVPPTFGQGTKVEIE",,85 % of GpH7-B3/GpL16-k0,4 % of GpH7-B3/GpL16-k0,45 % of GpH7-B3/GpL16-k0,49 % of GpH7-B3/GpL16-k0,
"GpH7-B3 variant D265F/GpL16-k0 (antibody, human IgG1, copies: 2 + 2) heavy: not shown light: DIVMTQSPLSLPVTPGEPASISCQASESLVHSNRNTYLHWYLQKPGQSPQLLIYKVSNRFSGVPDRFSGSGSGTDFTLKISRVEAEDVGVYYCSQNTHVPPTFGQGTKVEIE",,-1 % of GpH7-B3/GpL16-k0,-2 % of GpH7-B3/GpL16-k0,2 % of GpH7-B3/GpL16-k0,-2 % of GpH7-B3/GpL16-k0,0 % of GpH7-B3/GpL16-k0
"GpH7-B3 variant S239W/GpL16-k0 (antibody, human IgG1, copies: 2 + 2) heavy: not shown light: DIVMTQSPLSLPVTPGEPASISCQASESLVHSNRNTYLHWYLQKPGQSPQLLIYKVSNRFSGVPDRFSGSGSGTDFTLKISRVEAEDVGVYYCSQNTHVPPTFGQGTKVEIE",,19 % of GpH7-B3/GpL16-k0,19 % of GpH7-B3/GpL16-k0,69 % of GpH7-B3/GpL16-k0,17 % of GpH7-B3/GpL16-k0,

# From patent US20200199241A1 (Chugai, published 2020)
